From the DeepSol protein solubility set

Assay: soluble on expression in E. coli; label from the status in PepcDB or PDB records

Sequence | soluble on expression in E. coli
MEKAYDFEVEAPPEVVRDYLMNPENLMKYIPHFKDLKRVDDGWELYVSWLFTIKLKVKRVFTNTDIIYLVEKSEGLIKIKSSLRFTIFPSKGGITIVRLVFFYDGPFESIVKGQADAFYRKGKEVFKTEMTKEKRIQEEQNGVKGEVSIYEMKTIFSGKINKDELEKYLEIAMVKSVNSTVVVILSDERNIIEIKFKGGELVAQKGDLDSLSSPITILIKQLEHHHHHH | soluble
MAHHHHHHMFMCRVHARARYLYILQNGSVEEMTALLTKLRAAVPSERLIIEHRPQNIGYAAAVNEGYRVALQKPHAEVPFIGVFNCDVYFERRYFGRYIPVVYKMLAPDAARIRALEEVVEQEERAARAAGRQTLRASVATTPGLSISMLLPDRIRYSSFAEQQDEFKGHVGMFYYETKSMCAFLVSRLALLVGGFLDENFYPAYFEDYDWQFRLANLGFKTFTGSSAQFGGFFHRMGGNIRVINKGPAGKSISYDMAAIRVERMLNAKPGIDYGETKWAWHREALVAMSATPFPQLGFIVPLDVWVLDAARHQLIIDIGTGRRPSVEMSNTYNVSLLSSLRRFALADGKDFWGSGIITTEPDWRK | not soluble
MQCGLLKHRLLKFFSTEAIMTTNQRSIKAPQTVVVKLGTSVLTGGTLALDRAHMVELARQCAELKKQGHSVVIVTSGAIAAGREHLGYPALPNAISSKQLLAAVGQSRLIQVWESLFAIYGIKIGQMLLTRADLDDRERFLNARDTINALVENGIVPVVNENDAVATNEIKVGDNDNLSALVGILCGADKLLLLTDQKGLFTADPRKDPNAQLIKEVTTIDDTLRKIAGGSGTTLGTGGMATKLQAADIARRAGIEVIIAAGRAPNVIFDSLSDEPQGTRFLALEEALENRKRWILAGPAASGDIVIDDGAVKAVQTKGSSLLAKGVVRVQGQFARGEVVRVLDKQSHLIARGIAAYSNDELAQIAGKHSKEIIDILGYDHGSEVIHRDDMVVIQE | not soluble
EEIHLIAVNELLYVKAEDKYLSLYKVHGATTHEYLLRSSLKELLAQLDPNQFWQIHRSIVVNVGKIDKVTRDFGGKMWVHIDRLQLPVSRALQHLFKVS | not soluble
MGSSHHHHHHSSGLVPRGSSTYRDIVVKKEDGFTQIVLSTRSTEKNALNTEVIKEIVNALNSAAADDSKLVLFSAAGSVFCCGLDFGYFVKHLRNNRNTASLEMVDTIKNFVNTFIQFKKPIVVSVNGPAIGLGASILPLCDLVWANEKAWFQTPYTTFGQSPDGCSSITFPKMMGKASANEMLIAGRKLTAREACAKGLVSQVFLTGTFTQEVMIQIKELASYNPIVLEECKALVRCNIKLELEQANERECEVLRKIWSSAQGIESMLKIPLLGYKAAFPPRKTQNDQRW | soluble
MGTRRDVRQEMLDDVQKKLMSLANSSEGKVDKVLMRNLFIGHFHTPKNQRHEVLRLMGSILGVRREEMEQLFHDDQGSVTRWMTGWLGGGSKSVPNTPLRPNQQSVVNSSFSELFVKFLETESHPSIPPPKLSVHDMKPLDSPGRRKRDTNAPESFKDTAESRSGRRTDVNPFLAPRSAAVPLINPAGLGPGGPGIFFLEHHHHHH | not soluble
MFAIQPGLAEGGQFLGDPPPGLCQPELQPDSNSNFMASAKDANENWHGMPGRVEPILRRSSSESPSDNQAFQAPGSPEEGVRSPPEGAEIPGAEPEKMGGAGTVCSPLEDNGYASSSLSIDSRSSSPEPACGTPRGPGPPDPLLPSVAQAVQHLQVQERYKEQEKEKHHVHLVMYRRLALLQWIRGLQHQLIDQQARLQESFDTILDNRKELIRCLQQRAAPSRPQDQA | soluble
MPQPESENLSVKLFKNHKQALETSGLVPYLPSSLEQLEQSGRTWYRELRRPQWIWQGVDAIELESILARIANSQKHRSRDEWLDTVSGYHSGNWAYEWIHAGMEHQKTASELDGDEAAEAYFKASLYFSVAGYPHIKGDNLAIQSQVLASQAYDMAAKQTSHRVEKILVPYQGRKITCYLHLPNTEKPLPVVIVSGGMDSLQTDMWRLYRDFLAPNNMAMLTLDMPSIGHSSHWPLSEDSSCLHQAVLNYLPNIPWVDRFHAAVMGFRFGGNVALRLSFLEPSRLKACVALGAPVHQILTNSARLKTMPKMYLDVLASRLAKQVVDINSLTSQMQAWSLKNQGFLSGGRKTSVSVLAIGLKDDPVSPKSDNKLAALFSKYGKGVELNSKTLHSGYEEALKQMIEWIKEEMKQ | not soluble
MREDNQSLSHTTWNCKYHIVFAPKYRRQIIYGRYKASIGRIIRDLCERKGVIIHEANACSDHIHMLISIPPKLSVSSFMGYLKGKSSLMIFDKHANLKYKYGNRKFWCRGYYVDTVGRNQKVIAEYIQNQLQEDRVADQLTLFESVDPFTGEINKRK | not soluble
MGSDKIHHHHHHMKETSWDDYKIAYQVALDGSLSRAGVSLRINHATVLRRINQLEQALEVKLFIRHQRGYKLTDAGCVLMDEMPEMLAKFSSLENKLQNVEGDISGELRITTVSSFSPVITPALKAFRAKYPKIRLKLISTDDIVPLDSGAAHVSLRAGPSPVGVDLVVKNLIKLETAYHATQDYIDEFGQPKTINEFNDHQWVLPTPEKYRIPFVNYIVDKIDKNRIVFQSNNFSDIHDAVIAGMGIGPLSDHQASLNPSMVKIDLDIPKNGESIWFVYHKDLKHSARIQSFYHFLKAALSDIEQEHLRISDSKTNKD | not soluble
MKLYNLKDHNEQVSFAQAVTQGLGKQQGLFFPHDLPEFSLTEIDEMLNQDFVSRSAKILSAFIGDEIPQQILEERVRAAFAFPAPVAQVESDVGCLELFHGPTLAFKDFGGRFMAQMLTHISGDKPVTILTATSGDTGAAVAHAFYGLENVRVVILYPRGKISPLQEKLFCTLGGNIETVAIDGDFDACQALVKQAFDDEELKTALGLNSANSINISRLLAQICYYFEAVAQLPQGARNQLVISVPSGNFGDLTAGLLAKSLGLPVKRFIAATNVNDTVPRFLHDGKWAPKATQATLSNAMDVSQPNNWPRVEELFRRKIWRLTELGYAAVDDTTTQQTMRELKAKGYISEPHAAVAYRALRDQLNPGEYGLFLGTAHPAKFKESVESILGETLALPEALAERADLPLLSHHLPADFAALRKLMMTRQ | not soluble
RDVVGVGFGPANLALAIAIEEHNAECPPRERISAQFFEKQDRFGWHPGMLLDGATMQIAFPKDLVTFRNPRSAFTFFNYLFDQGRLVDFVNHQTFFPTRHEFHDYLQWAARRVDADVRYGTAVETVRGIRGDDGVIDRFEVRTADGSTVIARNVVMGAGLRERIPEWANPSARCFHNHQFLFRLGEMPAPVHHRFVVLGAGQSAAEIVQYLHGN | not soluble
TAPTLAEEVKQQSDGSVIIEGSANLRDLNKLFNWHLPINEVRTFNGLILEHLEKIPIEGTQFRLNQLNITVLEVADNMVKKVKVELIE | soluble
MWINKVIKKRFETDIVQHVHIAKGTAMFQGVRLAVRCFVVDGVLIDTGAKSMENEFTSFFQQQDIDQVVITHFHEDHTGCAAFLQRSMGLPIYMNEPMIEYCRQKADYPLYRKIFWGKRDPFAAKPIGATFSSRNATWDVIPTPGHAIDHVVFLNRETGQLFSGDLYCQEKTKVILREEDIPTIIASLQHVLTYDFGDVFCAHAGYLPNGREALQRKLDYLLELQGTIIDLYEKGTPPKQIQALLFPKKYPIIFFSGGEWDSLHIVRSVIRDYEAKQASLEHHHHHH | soluble
MTAYAKWSSCFQNGIDSWNNLTTTAEFLNHAGNISSNCKIILDLNIVKLSDSKFYISPQVQKSLTHATVGISSNFEAESQLKKVLELSSHHFLICQLFQRLPIINIFGATPKLSERERELFQKIGNYYPVAIGTKSGLVNVTMKPQYNYSLNDSAVPSSKSEFQLDLIYFLKDVLKQDFYYSIWFNIFFDELPNMLHRNRNFDENRITLCQININIDNDQKTNMKQFFKSLISDKRYVIIFEVVNDYGVLFLINFDNTTCRKKLGIVRNV | not soluble
MATENPQTWALWLILSEMASDMQEDKKVAKILVLGPPKAGKTTLCTFLADFMEDGDTLKKGEDSGERERKFEFEFTSVYRPTKGVRIQEFETHEFFTEQEQNELGGTRRLEDSEIQLWDVSGDKKYEDCWPAIKENAEGVILVVNPEEHKGSDLQQWFYEFVEKENIDLSCVMVILNEQGAKKTNHEQISGFEILPKLRGVHHVAHHFGSEAMQVKMEVNSFMASVLKMDQRQMGSGVDHGLGYADEQEDDF | not soluble
MSAAADRLNLTSGHLNAGRKRSSSSVSLKAAEKPFKVTVIGSGNWGTTIAKVVAENCKGYPEVFAPIVQMWVFEEEINGEKLTEIINTRHQNVKYLPGITLPDNLVANPDLIDSVKDVDIIVFNIPHQFLPRICSQLKGHVDSHVRAISCLKGFEVGAKGVQLLSSYITEELGIQCGALSGANIATEVAQEHWSETTVAYHIPKDFRGEGKDVDHKVLKALFHRPYFHVSVIEDVAGISICGALKNVVALGCGFVEGLGWGNNASAAIQRVGLGEIIRFGQMFFPESREETYYQESAGVADLITTCAGGRNVKVARLMATSGKDAWECEKELLNGQSAQGLITCKEVHEWLETCGSVEDFPLFEAVYQIVYNNYPMKNLPDMIEELDLHED | soluble
MGSDKIHHHHHHVMTKAADGMSDWDNMAIICDVLGRAPDVEMGSIGEGWSLCRWRQFVGAYTLPALPQPIFTVHIAGKPQVKTWDKGGWTETSSIPGCATIVPAGMPTGWLVDGELDVVTLSMASDVLAGQPHADQFNRMRFAFSDPLGVALTRQILSEIYAPQAEERTAYVSAMVGALKAHILSGPPAHGNPVDIPVSDFSAYRLHKIMNAILADPAAEHSLEAMAAVAGVTPSHFCRLFKKAIGITPHQYVMKARLDRAQQMLVQTEMSLAALSEAAGFASQSHFSRAFRSWFGMAPSDFRQQERRRTD | not soluble
MYTNSDFVVIKALEDGVNVIGLTRGADTRFHHSEKLDKGEVLIAQFTEHTSAIKVRGKAYIQTRHGVIESEGKKAAAAAAA | soluble
MHSEKSVMMEPMTNPKNDPRNPDLLLDFEEVEFTRGGKTLVGPITWQVELDERWVILGPNGAGKTTLIRMAAAEEFPSKGALWIMGERIGKTDMRDLRAMIGVSSSALGNRIPTNEKVLDLVISAGYAILGRWREEYDKWDHDRAIEILEQVGAYHLADQTWGTLSEGERKRVLVARALMTNPELLLLDEPTAGMDLGGREDLVGYLAQLAMDPDAPAMVMITHHVEEIPAGFTHALLLDEGEVVSQGLIDEVLTSANLTKAFHQPIKVDKIDGRYFARRQRTARSHRR | not soluble
MAQQLLMPKATAVWLVDNTALSFDQIAQFCKLHPLEVKAIADGESAQGIKGLDPIATGQLSRDEIARAEGNPNHKLKLSEPKVRVPDSKRKGPRYTPVSKRQDRPNAILWLVRNHPELKDAQISRLVGTTKATIEQIRERTHWNSANLTPMDPVTLGLCSQIDLDLEVERASKGRPLPSAAETGATLESAQETEKLDYGQDREEEKEIDADAVFAKLKSLKSDRKDDEEDDY | not soluble
MADVTGIALGMIETRGLVPAIEAADAMTKAAEVRLVGRQFVGGGYVTVLVRGETGAVNAAVRAGADACERVGDGLVAAHIIARVHSEVENILPKAPQA | soluble
MADDGPIIEEIAEKNGRVARIMQRLQHDTQRVTSVPGFNTSATGYADLIALLDQYKNDLEAVGFNDLEQARRRAPSVDITVGSNSTNLVDYSHGRHDMPSHRRHDSSDEEITAANSHHQSPINVGNRNDTDGTNGRNGSRAGSSSSDRVRMIAGRNRISKTRRYRPGQKALEEIRKYQESEDLLIPKAPFARLVREIMQTSTPFSSDLRIRSDAINALQEASEALLVQMFDGSSLISAHSKRATLTTTDVQLYRRLCLPNL | not soluble
MIVLPRRLSDEVADRVRALIDEKNLEAGMKLPAERQLAMQLGVSRNSLREALAKLVSEGVLLSRRGGGTFIRWRHDTWSEQNIVQPLKTLMADDPDYSFDILEARYAIEASTAWHAAMRATPGDKEKIQLCFEATLSEDPDIASQADVRFHLAIAEASHNIVLLQTMRGFFDVLQSSVKHSRQRMYLVPPVFSQLTEQHQAVIDAIFAGDADGARKAMMAHLSFVHTTMKRFDEDQARHARITRLPGEHNEHSREKNA | soluble
